Tests used:
[1] = target: dissociated S1 protomer (SARS-CoV-2, Wuhan-Hu-1, stabilised); test: cryo-EM structure
[2] = target: recombinant S1 domain containing B.1.1.7 mutations (SARS-CoV-2 B.1.1.7 (Alpha), strain); test: BLI

| Binder | binding result [1] | fold reduction of binding affinity against S1 [2] [fold] |
| --- | --- | --- |
| N-612-004 Fab (Fab, V domains shown) VH: EVQLVESGGGLVQPGGSLRLSCAASGFTFSSYYMHWVRQAPGKGLEWVSAISGSGGYTYYADSVKGRFTISRDNSKNTLYLQMNSLRAEDTAVYYCARDRDHAYDWGFDVWGQGTLVTVSS VL: DIQMTQSPSSLSASVGDRVTITCQASQDISNYLNWYQQKPGKAPKLLIYDASNLETGVPSRFSGSGSGTDFTFTISSLQPEDIATYYCQQWADWPLTFGQGTKVEIK | binds | – |
| N-612-004 (IgG1) (antibody, V domains shown) VH: EVQLVESGGGLVQPGGSLRLSCAASGFTFSSYYMHWVRQAPGKGLEWVSAISGSGGYTYYADSVKGRFTISRDNSKNTLYLQMNSLRAEDTAVYYCARDRDHAYDWGFDVWGQGTLVTVSS VL: DIQMTQSPSSLSASVGDRVTITCQASQDISNYLNWYQQKPGKAPKLLIYDASNLETGVPSRFSGSGSGTDFTFTISSLQPEDIATYYCQQWADWPLTFGQGTKVEIK | – | ~3 |
